The supplement of paper PMC9112550, “Optimization of the antimicrobial peptide Bac7 by deep mutational scanning” (BMC Biology, 2022)

System: Escherichia coli TOP10
Experiment: shrunken log2 fold change of peptide-encoding DNA abundance (4.5 h post-induction vs induction); higher = less antimicrobial activity (less host growth inhibition)
Details: time post-induction: 4.5 h; library: site-saturation at positions 5, 18, 19, 20
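Further: peptides expressed intracellularly from a pBAD plasmid library in pooled LB shake-flask culture, induced with 0.3% L-arabinose, DNA abundance read by NGS, three biological replicates, DESeq2 with apeglm shrinkage.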

Sequence	shrunken log2 fold change
RRIRTRPPRLPRPRPRPKGQPRP	0.0118
RRIRTRPPRLPRPRPRPKGRPRP	-0.219
RRIRTRPPRLPRPRPRPKGTPRP	-0.188
RRIRTRPPRLPRPRPRPKHAPRP	0.0369
RRIRTRPPRLPRPRPRPKHRPRP	-0.191
RRIRTRPPRLPRPRPRPKHVPRP	-0.658
RRIRTRPPRLPRPRPRPKIPPRP	-0.21
RRIRTRPPRLPRPRPRPKIQPRP	-0.0936
RRIRTRPPRLPRPRPRPKKLPRP	-0.298
RRIRTRPPRLPRPRPRPKKRPRP	0.0216
RRIRTRPPRLPRPRPRPKKTPRP	0.0546
RRIRTRPPRLPRPRPRPKLNPRP	0.097
RRIRTRPPRLPRPRPRPKQFPRP	-0.103
RRIRTRPPRLPRPRPRPKTAPRP	-0.0452
RRIRTRPPRLPRPRPRPKVFPRP	-0.0334
RRIRTRPPRLPRPRPRPKWPPRP	1.51
RRIRTRPPRLPRPRPRPKYRPRP	-0.135
RRIRTRPPRLPRPRPRPKYVPRP	0.0339
RRIRTRPPRLPRPRPRPLACPRP	0.0365
RRIRTRPPRLPRPRPRPLATPRP	0.0927
RRIRTRPPRLPRPRPRPLCKPRP	-0.257
RRIRTRPPRLPRPRPRPLDDPRP	0.115
RRIRTRPPRLPRPRPRPLDNPRP	-0.396
RRIRTRPPRLPRPRPRPLDSPRP	-0.0239
RRIRTRPPRLPRPRPRPLEDPRP	-0.163

Sequence	shrunken log2 fold change
RRIRTRPPRLPRPRPRPLERPRP	-0.0732
RRIRTRPPRLPRPRPRPLEYPRP	-0.668
RRIRTRPPRLPRPRPRPLGDPRP	-0.109
RRIRTRPPRLPRPRPRPLGHPRP	-0.459
RRIRTRPPRLPRPRPRPLHWPRP	0.111
RRIRTRPPRLPRPRPRPLIGPRP	-0.413
RRIRTRPPRLPRPRPRPLKMPRP	-0.0458
RRIRTRPPRLPRPRPRPLKSPRP	-0.0242
RRIRTRPPRLPRPRPRPLNDPRP	-0.192
RRIRTRPPRLPRPRPRPLNVPRP	-0.0675
RRIRTRPPRLPRPRPRPLPHPRP	-0.00316
RRIRTRPPRLPRPRPRPLPIPRP	-0.0647
RRIRTRPPRLPRPRPRPLQYPRP	-0.0374
RRIRTRPPRLPRPRPRPLRNPRP	-0.0969
RRIRTRPPRLPRPRPRPLRPPRP	0.864
RRIRTRPPRLPRPRPRPLSGPRP	-0.0581
RRIRTRPPRLPRPRPRPLTGPRP	-0.0139
RRIRTRPPRLPRPRPRPLTIPRP	-0.315
RRIRTRPPRLPRPRPRPLVCPRP	0.0682
RRIRTRPPRLPRPRPRPLVHPRP	-0.282
RRIRTRPPRLPRPRPRPLVKPRP	-0.0793
RRIRTRPPRLPRPRPRPLVMPRP	-0.0423
RRIRTRPPRLPRPRPRPLVNPRP	-0.559
RRIRTRPPRLPRPRPRPLVTPRP	-0.227
RRIRTRPPRLPRPRPRPLWPPRP	0.216

Sequence	shrunken log2 fold change
RRIRTRPPRLPRPRPRPMCCPRP	-0.182
RRIRTRPPRLPRPRPRPMDRPRP	-0.01
RRIRTRPPRLPRPRPRPMDWPRP	-0.05
RRIRTRPPRLPRPRPRPMEYPRP	-0.0122
RRIRTRPPRLPRPRPRPMFRPRP	-0.193
RRIRTRPPRLPRPRPRPMHAPRP	-0.112
RRIRTRPPRLPRPRPRPMHSPRP	0.02
RRIRTRPPRLPRPRPRPMIRPRP	-0.0798
RRIRTRPPRLPRPRPRPMIWPRP	-0.0322
RRIRTRPPRLPRPRPRPMMNPRP	0.0667
RRIRTRPPRLPRPRPRPMNIPRP	-0.259
RRIRTRPPRLPRPRPRPMNYPRP	-0.949
RRIRTRPPRLPRPRPRPMPDPRP	-0.0705
RRIRTRPPRLPRPRPRPMQFPRP	-0.0258
RRIRTRPPRLPRPRPRPMQLPRP	-0.191
RRIRTRPPRLPRPRPRPMQSPRP	-0.349
RRIRTRPPRLPRPRPRPMRNPRP	0.356
RRIRTRPPRLPRPRPRPMSCPRP	-0.181
RRIRTRPPRLPRPRPRPMVDPRP	-0.00822
RRIRTRPPRLPRPRPRPMWGPRP	-0.00569
RRIRTRPPRLPRPRPRPMWKPRP	0.00922
RRIRTRPPRLPRPRPRPMWPPRP	-0.0463
RRIRTRPPRLPRPRPRPNADPRP	-0.00181
RRIRTRPPRLPRPRPRPNAEPRP	0.25
RRIRTRPPRLPRPRPRPNCHPRP	-0.341

Sequence	shrunken log2 fold change
RRIRTRPPRLPRPRPRPNCMPRP	-0.16
RRIRTRPPRLPRPRPRPNCPPRP	-0.0894
RRIRTRPPRLPRPRPRPNDCPRP	0.0184
RRIRTRPPRLPRPRPRPNDLPRP	-0.354
RRIRTRPPRLPRPRPRPNDRPRP	0.21
RRIRTRPPRLPRPRPRPNECPRP	-0.0286
RRIRTRPPRLPRPRPRPNFWPRP	0.31
RRIRTRPPRLPRPRPRPNGCPRP	0.0101
RRIRTRPPRLPRPRPRPNGKPRP	-0.189
RRIRTRPPRLPRPRPRPNGRPRP	-0.0231
RRIRTRPPRLPRPRPRPNHLPRP	-0.15
RRIRTRPPRLPRPRPRPNHTPRP	-0.312
RRIRTRPPRLPRPRPRPNHVPRP	-0.0538
RRIRTRPPRLPRPRPRPNIEPRP	0.105
RRIRTRPPRLPRPRPRPNIPPRP	-0.593
RRIRTRPPRLPRPRPRPNIQPRP	-0.586
RRIRTRPPRLPRPRPRPNKQPRP	-0.207
RRIRTRPPRLPRPRPRPNNFPRP	-0.381
RRIRTRPPRLPRPRPRPNQMPRP	-0.334
RRIRTRPPRLPRPRPRPNQQPRP	0.00192
RRIRTRPPRLPRPRPRPNQVPRP	0.00376
RRIRTRPPRLPRPRPRPNQYPRP	-0.446
RRIRTRPPRLPRPRPRPNRVPRP	-0.0472
RRIRTRPPRLPRPRPRPNTKPRP	-0.337
RRIRTRPPRLPRPRPRPNTRPRP	-0.318

Sequence	shrunken log2 fold change
RRIRTRPPRLPRPRPRPNTSPRP	-0.43
RRIRTRPPRLPRPRPRPNTYPRP	-0.614
RRIRTRPPRLPRPRPRPNVGPRP	0.202
RRIRTRPPRLPRPRPRPNVIPRP	-0.372
RRIRTRPPRLPRPRPRPNVTPRP	-0.182
RRIRTRPPRLPRPRPRPNVVPRP	-0.0363
RRIRTRPPRLPRPRPRPNWGPRP	-0.0445
RRIRTRPPRLPRPRPRPNYHPRP	-1.14
RRIRTRPPRLPRPRPRPPATPRP	0.213
RRIRTRPPRLPRPRPRPPCGPRP	0.4
RRIRTRPPRLPRPRPRPPCIPRP	0.00685
RRIRTRPPRLPRPRPRPPCLPRP	-0.0659
RRIRTRPPRLPRPRPRPPEIPRP	0.0182
RRIRTRPPRLPRPRPRPPEPPRP	0.416
RRIRTRPPRLPRPRPRPPFEPRP	0.156
RRIRTRPPRLPRPRPRPPGWPRP	0.758
RRIRTRPPRLPRPRPRPPIGPRP	0.0445
RRIRTRPPRLPRPRPRPPIYPRP	-0.305
RRIRTRPPRLPRPRPRPPMAPRP	0.176
RRIRTRPPRLPRPRPRPPMFPRP	-0.097
RRIRTRPPRLPRPRPRPPMIPRP	-0.44
RRIRTRPPRLPRPRPRPPNYPRP	-0.101
RRIRTRPPRLPRPRPRPPPTPRP	0.828
RRIRTRPPRLPRPRPRPPQLPRP	0.0198
RRIRTRPPRLPRPRPRPPQWPRP	0.274

Sequence	shrunken log2 fold change
RRIRTRPPRLPRPRPRPPRCPRP	0.391
RRIRTRPPRLPRPRPRPPSIPRP	0.114
RRIRTRPPRLPRPRPRPPTQPRP	0.282
RRIRTRPPRLPRPRPRPPWMPRP	-0.00314
RRIRTRPPRLPRPRPRPPYLPRP	-0.365
RRIRTRPPRLPRPRPRPQAMPRP	0.00573
RRIRTRPPRLPRPRPRPQAPPRP	-0.1
RRIRTRPPRLPRPRPRPQEAPRP	0.0871
RRIRTRPPRLPRPRPRPQEMPRP	-0.0617
RRIRTRPPRLPRPRPRPQFKPRP	2.23
RRIRTRPPRLPRPRPRPQFMPRP	0.0325
RRIRTRPPRLPRPRPRPQGEPRP	-0.0823
RRIRTRPPRLPRPRPRPQGFPRP	0.0424
RRIRTRPPRLPRPRPRPQGVPRP	-0.0062
RRIRTRPPRLPRPRPRPQHRPRP	-0.0713
RRIRTRPPRLPRPRPRPQHVPRP	-0.0575
RRIRTRPPRLPRPRPRPQIFPRP	-0.716
RRIRTRPPRLPRPRPRPQIKPRP	-0.0374
RRIRTRPPRLPRPRPRPQITPRP	-0.474
RRIRTRPPRLPRPRPRPQLRPRP	-0.12
RRIRTRPPRLPRPRPRPQPFPRP	0.0325
RRIRTRPPRLPRPRPRPQQMPRP	-0.0941
RRIRTRPPRLPRPRPRPQQWPRP	0.46
RRIRTRPPRLPRPRPRPQSRPRP	-0.0689
RRIRTRPPRLPRPRPRPQSSPRP	-0.08
